Source: patent US20140323393A1 (CREATIVE BIO PEPTIDES, published 2014)
Where no end group is shown, it is not given here. [ ]: non-standard residue; d: D form.

Molecular target: Toll-like receptor 4 (TLR4) on monocyte-derived iDC
Assay: cell-based or functional assay

[dT][dT][dN][dY][dT] [All-D-TTNYT (RAP-103)]
IC50 for inhibition of LPS (100 ng/mL) induced TNF-α secretion in monocyte-derived iDC (ELISA of supernatants, FIG. 5): ~0.1 pM
